Values quoted from earlier work in article PMC7101271.

Biological target: Rab7 (UniProt P51149)
UniProt P51149, sequence (P51149 2-207): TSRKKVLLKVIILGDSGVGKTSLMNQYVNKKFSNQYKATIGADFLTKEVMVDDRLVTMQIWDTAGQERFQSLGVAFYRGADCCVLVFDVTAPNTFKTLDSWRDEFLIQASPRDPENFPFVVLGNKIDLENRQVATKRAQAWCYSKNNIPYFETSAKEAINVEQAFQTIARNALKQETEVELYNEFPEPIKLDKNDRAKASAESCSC

## GDI (from UniProt P21856)
  Kd: > 50 µM
